T1: FcγRIIb extracellular domain with C-terminal His tag (human, UniProt P31994 43-217)
T1 construct: extracellular domain; also called FcgRIIb; 2b; not shown: His tag at the C terminus
T1 sequence (looked up): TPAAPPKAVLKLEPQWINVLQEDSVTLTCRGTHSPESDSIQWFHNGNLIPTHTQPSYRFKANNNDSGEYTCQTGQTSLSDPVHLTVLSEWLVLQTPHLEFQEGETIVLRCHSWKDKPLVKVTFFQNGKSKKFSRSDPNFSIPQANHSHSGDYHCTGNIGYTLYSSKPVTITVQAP

T2: FcgRIIb (human, UniProt P31994 43-217)
T2 construct: extracellular domain; also called FcγRIIb; not shown: His tag attached to the C terminus
T2 sequence (looked up): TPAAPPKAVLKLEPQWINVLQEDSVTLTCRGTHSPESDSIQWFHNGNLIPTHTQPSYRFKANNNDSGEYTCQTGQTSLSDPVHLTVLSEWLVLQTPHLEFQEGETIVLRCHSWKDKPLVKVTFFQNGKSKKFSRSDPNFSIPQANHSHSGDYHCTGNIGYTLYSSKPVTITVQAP

T3: FcgRIIa H (human, UniProt P12318 34-217)
T3 construct: extracellular domain; also called FcγRIIa H; FcγRIIa type H; not shown: His tag attached to the C terminus
T3 sequence (looked up): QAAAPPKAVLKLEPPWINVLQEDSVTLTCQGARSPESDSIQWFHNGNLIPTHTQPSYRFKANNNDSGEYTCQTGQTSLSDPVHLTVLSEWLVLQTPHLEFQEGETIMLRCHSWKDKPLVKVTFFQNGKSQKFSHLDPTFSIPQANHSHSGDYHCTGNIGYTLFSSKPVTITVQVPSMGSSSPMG

T4: FcgRIIa R (human, UniProt P12318 34-217)
T4 construct: extracellular domain; also called FcγRIIa R; FcγRIIa type R; not shown: His tag attached to the C terminus
T4 sequence (looked up): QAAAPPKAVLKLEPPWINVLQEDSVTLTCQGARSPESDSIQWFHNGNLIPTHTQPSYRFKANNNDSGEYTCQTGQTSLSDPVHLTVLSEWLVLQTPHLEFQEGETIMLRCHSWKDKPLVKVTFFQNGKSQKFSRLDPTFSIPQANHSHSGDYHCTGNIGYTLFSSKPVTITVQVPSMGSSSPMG


What was measured:
[1] = molecular target: T5, FcγRIIIa extracellular domain with C-terminal His tag (human, UniProt P08637 17-208); experiment: SPR; He/Con_3a divided by He/Con_2b (binding to FcγRIIb is the reference)
T5 construct: extracellular domain; also called FcgRIIIa; 3a; not shown: His tag at the C terminus
T5 sequence (P08637 17-208): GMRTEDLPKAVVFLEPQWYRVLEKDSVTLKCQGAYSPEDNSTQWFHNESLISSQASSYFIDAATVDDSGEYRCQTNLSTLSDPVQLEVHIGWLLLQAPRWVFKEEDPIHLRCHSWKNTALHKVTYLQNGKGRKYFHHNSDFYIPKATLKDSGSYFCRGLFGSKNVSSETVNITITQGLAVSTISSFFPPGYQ
Method: Analysis of interaction between objective antibody and the FcγR was carried out using Biacore T100 (GE Healthcare). HBS-EP+ (GE Healthcare) was used as the running buffer, and the measurement temperature was set to 25° C. Chips produced by immobilizing the antigen peptide by the amine coupling method to a Series S Sencor Chip CM5 (GE Healthcare), or alternatively, chips produced by allowing preliminarily biotinylated antigen peptides to interact with and immobilize onto a Series S Sensor Chip SA (certified) (GE Healthcare) were used. Antibodies of interest were captured onto an antigen peptide-immobilized chip, and allowed to interact to each FcγR diluted with running buffer. To regenerate and repeatedly use the chip, the antibodies captured on the chip were washed off by reacting 10 mM glycine-HCl, pH 1.5.
The FcγR-binding activity of each antibody was assessed primarily using as an indicator the FcγR-binding activity and dissociation constant for FcγR.

[2] = molecular target: T5, FcγRIIIa extracellular domain with …; experiment: SPR (Biacore), antibody captured on antigen peptide chip, FcγR as analyte; relative binding amount
[3] = molecular target: T1, FcγRIIb extracellular domain with …; experiment: as above
FcgRIIb = molecular target: T2, FcgRIIb; experiment: SPR (Biacore); KD of H240-Kn061/H240-Hl071/L73-k0 divided by KD of the variant
Method: (§1) The antibodies were assessed for the binding to each FcgR. […] The resultant value was defined as relative KD, and used as an assessment indicator.
(§2) Analysis of interaction between obj ective antibody and the FcγR was carried out using Biacore T100 (GE Healthcare), Biacore T200, Biacore A100, and Biacore 4000. HBS-EP+ (GE Healthcare) was used as the running buffer, and the measurement temperature was set to 25° C. Chips produced by immobilizing the antigen peptide by the amine coupling method to a Series S sensor Chip CM5 (GE Healthcare), chips produced by allowing preliminarily biotinylated antigen peptides to interact with and immobilize onto a Series S Sensor Chip SA (certified) (GE Healthcare), chips produced by immobilizing Protein L (ACTIGEN, BioVision) to Series S Sencor Chip CM5 (GE Healthcare), or chips produced by immobilizing Protein A/G (Thermo Scientific) to Series S Sencor Chip CM5 (GE Healthcare) were used. Antibodies of interest were captured onto these chips, and allowed to interact to each FcγR diluted with running buffer.

FcgRIIIa F = molecular target: T6, FcgRIIIa F (human, UniProt P08637 17-208); experiment: as above
T6 construct: extracellular domain; also called FcγRIIIa F; 3aF; not shown: His tag attached to the C terminus
T6 sequence (P08637 17-208): as above
Method: as §1, §2

FcgRIIIa V = molecular target: T7, FcgRIIIa V (human, UniProt P08637 17-208); experiment: as above
T7 construct: extracellular domain; also called FcγRIIIa V; not shown: His tag attached to the C terminus
T7 sequence (P08637 17-208 F176V limits assumed): as the sequence (P08637 17-208) above, with F160V counted along it
Method: as §1, §2

FcgRIIa H = molecular target: T3, FcgRIIa H; experiment: as above
Method: as §1, §2

FcgRIIa R = molecular target: T4, FcgRIIa R; experiment: as above
Method: as §1, §2

Row | Binder | He_3a/2b (IIIa/IIb) [1] [ratio] | He/Con_3a [2] | He/Con_2b [3] | Relative KD (FcgRIIb) | Relative KD (FcgRIIIa F) | Relative KD (FcgRIIIa V) | Relative KD (FcgRIIa H) | Relative KD (FcgRIIa R)
1 | H240-Kn061 (A231E)/H240-Hl071/L73-k0 (antibody, human IgG1, kappa) heavy 1: QDQLVQSGAEVKKPGASVKVSCKASGFNIKDTYIQWVRQAPGQGLEWMGRIDPLRKQTKYREKFEGRVTITADTSTNTAYMELSSLRSEDTAVYYCVRSGREFDYWGQGTLVTVSSASTKGPSVFPLAPSSKSTSGGTAALGCLVKDYFPEPVTVSWNSGALTSGVHTFPAVLQSSGLYSLSSVVTVPSSSLGTQTYICNVNHKPSNTKVDKKVEPKSCDKTHTCPPCPEPEYYWGPSVFLFPPKPKDTLMISRTPEVTCVVVDVSDEDPEVKFNWYVDGVEVHNAKTKPREEQYNATYRVVSVLTVLHQDWLNGKEYKCKVSNKALPAPIEKTISKAKGQPREPQVCTLPPSRDELTKNQVSLWCLVKGFYPSDIAVEWESNGQPENNYKTTPPVLDSDGSFFLYSKLTVDKSRWQQGNVFSCSVMHEALHNHYTQKSLSLSP heavy 2: QDQLVQSGAEVKKPGASVKVSCKASGFNIKDTYIQWVRQAPGQGLEWMGRIDPLRKQTKYREKFEGRVTITADTSTNTAYMELSSLRSEDTAVYYCVRSGREFDYWGQGTLVTVSSASTKGPSVFPLAPSSKSTSGGTAALGCLVKDYFPEPVTVSWNSGALTSGVHTFPAVLQSSGLYSLSSVVTVPSSSLGTQTYICNVNHKPSNTKVDKKVEPKSCDKTHTCPPCPAPELLGGPSVFLFPPKPKDTLMISRTPEVTCVVVDVSHEDPEVKFNWYVDGVEVHNAKTKPREEQYNSTYRVVSVLTVLHQDWLNGKEYKCKVSNDALPMPIEETISKAKGQPREPQVYTLPPSRCELTKNQVSLSCAVKGFYPSDIAVEWESNGQPENNYKTTPPVLDSDGSFFLVSKLTVDKSRWQQGNVFSCSVMHEALHNHYTQKSLSLSP light: DIQMTQSPSSLSASVGDRVTITCRASQDIHKYIAWYQQKPGQAPRLLIQYTSTLQPGVPSRFSGSGSGTDYTFTISSLQPEDIATYYCLQYEQLRTFGGGTKVEIKRTVAAPSVFIFPPSDEQLKSGTASVVCLLNNFYPREAKVQWKVDNALQSGNSQESVTEQDSKDSTYSLSSTLTLSKADYEKHKVYACEVTHQGLSSPVTKSFNRGEC |  |  |  | 1.4 | 1.8 | 2 | 1.6 | 1.7
2 | H240-Kn061 (A231Q)/H240-Hl071/L73-k0 (antibody, human IgG1, kappa) heavy 1: QDQLVQSGAEVKKPGASVKVSCKASGFNIKDTYIQWVRQAPGQGLEWMGRIDPLRKQTKYREKFEGRVTITADTSTNTAYMELSSLRSEDTAVYYCVRSGREFDYWGQGTLVTVSSASTKGPSVFPLAPSSKSTSGGTAALGCLVKDYFPEPVTVSWNSGALTSGVHTFPAVLQSSGLYSLSSVVTVPSSSLGTQTYICNVNHKPSNTKVDKKVEPKSCDKTHTCPPCPQPEYYWGPSVFLFPPKPKDTLMISRTPEVTCVVVDVSDEDPEVKFNWYVDGVEVHNAKTKPREEQYNATYRVVSVLTVLHQDWLNGKEYKCKVSNKALPAPIEKTISKAKGQPREPQVCTLPPSRDELTKNQVSLWCLVKGFYPSDIAVEWESNGQPENNYKTTPPVLDSDGSFFLYSKLTVDKSRWQQGNVFSCSVMHEALHNHYTQKSLSLSP heavy 2: QDQLVQSGAEVKKPGASVKVSCKASGFNIKDTYIQWVRQAPGQGLEWMGRIDPLRKQTKYREKFEGRVTITADTSTNTAYMELSSLRSEDTAVYYCVRSGREFDYWGQGTLVTVSSASTKGPSVFPLAPSSKSTSGGTAALGCLVKDYFPEPVTVSWNSGALTSGVHTFPAVLQSSGLYSLSSVVTVPSSSLGTQTYICNVNHKPSNTKVDKKVEPKSCDKTHTCPPCPAPELLGGPSVFLFPPKPKDTLMISRTPEVTCVVVDVSHEDPEVKFNWYVDGVEVHNAKTKPREEQYNSTYRVVSVLTVLHQDWLNGKEYKCKVSNDALPMPIEETISKAKGQPREPQVYTLPPSRCELTKNQVSLSCAVKGFYPSDIAVEWESNGQPENNYKTTPPVLDSDGSFFLVSKLTVDKSRWQQGNVFSCSVMHEALHNHYTQKSLSLSP light: DIQMTQSPSSLSASVGDRVTITCRASQDIHKYIAWYQQKPGQAPRLLIQYTSTLQPGVPSRFSGSGSGTDYTFTISSLQPEDIATYYCLQYEQLRTFGGGTKVEIKRTVAAPSVFIFPPSDEQLKSGTASVVCLLNNFYPREAKVQWKVDNALQSGNSQESVTEQDSKDSTYSLSSTLTLSKADYEKHKVYACEVTHQGLSSPVTKSFNRGEC |  |  |  | 1.4 | 1.5 | 1.7 | 1.5 | 1.5

Second part, the binder after the results:

Row | He_3a/2b (IIIa/IIb) [1] [ratio] | He/Con_3a [2] | He/Con_2b [3] | Relative KD (FcgRIIb) | Relative KD (FcgRIIIa F) | Relative KD (FcgRIIIa V) | Relative KD (FcgRIIa H) | Relative KD (FcgRIIa R) | Binder
3 | 0.59 | 29.2 % of GpH7-A5/GpH7-B3/GpL16-k0 (=100) | 49.4 % of GpH7-A5/GpH7-B3/GpL16-k0 (=100) |  |  |  |  |  | GpH7-A5/GpH7-B3 variant S239_16H/GpL16-k0 (antibody, human IgG1, kappa, Heterodimerized anti-glypican-3 IgG1; the substitution stands in the GpH7-B3 chain only; also called He Ab) heavy 1: not shown heavy 2: not shown light: DIVMTQSPLSLPVTPGEPASISCQASESLVHSNRNTYLHWYLQKPGQSPQLLIYKVSNRFSGVPDRFSGSGSGTDFTLKISRVEAEDVGVYYCSQNTHVPPTFGQGTKVEIERTVAAPSVFIFPPSDEQLKSGTASVVCLLNNFYPREAKVQWKVDNALQSGNSQESVTEQDSKDSTYSLSSTLTLSKADYEKHKVYACEVTHQGLSSPVTKSFNRGEC
4 | 0.66 | 56.9 % of GpH7-A5/GpH7-B3/GpL16-k0 (=100) | 86.1 % of GpH7-A5/GpH7-B3/GpL16-k0 (=100) |  |  |  |  |  | GpH7-A5/GpH7-B3 variant S239_19Q/GpL16-k0 (antibody, human IgG1, kappa, Heterodimerized anti-glypican-3 IgG1; the substitution stands in the GpH7-B3 chain only; also called He Ab) heavy 1: not shown heavy 2: not shown light: DIVMTQSPLSLPVTPGEPASISCQASESLVHSNRNTYLHWYLQKPGQSPQLLIYKVSNRFSGVPDRFSGSGSGTDFTLKISRVEAEDVGVYYCSQNTHVPPTFGQGTKVEIERTVAAPSVFIFPPSDEQLKSGTASVVCLLNNFYPREAKVQWKVDNALQSGNSQESVTEQDSKDSTYSLSSTLTLSKADYEKHKVYACEVTHQGLSSPVTKSFNRGEC

Source: patent publication US20180155451A1 (published 2018)
